Columns and labels:
[1] = biological target: cynomolgus monkey CD33 extracellular domain with 6xHis-tag (cynomolgus monkey); assay: ELISA, hybridoma supernatant
[2] = biological target: mouse CD33 extracellular domain with 6xHis-tag (mouse) (UniProt Q63994); assay: ELISA, hybridoma supernatant
Chain of mouse CD33 extracellular domain with 6xHis-tag (mouse) (Q63994 other isoform, or with tags, fused parts or gaps limits assumed): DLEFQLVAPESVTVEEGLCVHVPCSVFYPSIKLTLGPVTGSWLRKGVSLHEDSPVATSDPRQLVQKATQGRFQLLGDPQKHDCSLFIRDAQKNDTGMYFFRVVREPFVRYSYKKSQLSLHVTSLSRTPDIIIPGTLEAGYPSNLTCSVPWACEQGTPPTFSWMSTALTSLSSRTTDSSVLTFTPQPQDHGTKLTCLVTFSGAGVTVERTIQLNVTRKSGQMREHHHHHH

Row | RLU [1] [RLU] | RLU [2] [RLU] | Binder
1 | 35500 | – | 1-A20 (antibody, V domains shown) VH: QVQLQESGPGLVKPSETLSLTCTVSGDSISSYYWSWIRQPAGKGLEWIGRIYTSGNTNYNPSLKSRVTMSVDKSKNQFSLKLRSVTAADTAVYYCARDGDNRDSDAFDIWGQGTMVTVSS VL: SPGTLSLSPGERATLSCRASQNISSSYLAWCQQKPGQAPRLFIYGTSRRATGIPDRFSGSGSGTDFTLTISRLEPEDFAVYYCQQYGSSPLTFGGGTKVEIK
2 | 22500 | – | 1-H19 (antibody, V domains shown) VH: QVQLQESGPGLVKPSETLSLTCTVSGGSISTYYWSWIRQPAGKGLEWIGRIYTSGNTNYNPSLKSRVTMSVDTSKNQLSLKLRSVTAADTAVYYCARDGDNRNSDAFDIWGQGTMVTVSS VL: QSVLTQPPSVSGAPGQRVTISCTGSSSNIGAGYDVHWYQQLPGTAPKLLIYGNSNRPSGVPDRFSGSKSGTSASLAITGLQAEDEADYYCQSYDRSLSGWVFGGGTKLTVL
3 | 12700 | 13700 | 3-P14 (hybridoma antibody) (antibody, V domains shown) VH: EVQLLESGGGLVQPGGSLRLSCAASGFTFSTYAMSWVRQAPGKGLEWVSAISGRGGSTYYTDSVKGRFTISRDNSKNTVSLQMNSLRAEDTAVYYCAGRGDYYYYYGMDVWGQGTTVTVSA VL: DIVMTQSPLSSPVTLGQPASFSCRSSQSLVYSDGNTYLSWLQQRPGQPPRLLIYKISNRFSGVPDRFSGSGAGTDFTLKISRVEAEDVGVYYCMQSTQFPHTFGQGTKLEIK

— US20240262910A1
